# Source: patent US20060153834A1
# No end group written: not given here.
# B1: KGEA (peptide)
# peptide: KGEA-{Toyopearl AF‑Amino‑650 resin}
# B2: HYIDAK (peptide)
# peptide: HYIDAKA-{Toyopearl AF‑Amino‑650 resin}
# B3: HLKWYA (peptide)
# peptide: HLKWYAA-{Toyopearl AF‑Amino‑650 resin}
# B4: HPWYVT (peptide)
# peptide: HPWYVTA-{Toyopearl AF‑Amino‑650 resin}
# B5: HDVFHT (peptide)
# peptide: HDVFHTA-{Toyopearl AF‑Amino‑650 resin}
# B6: HIQLDG (peptide)
# peptide: HIQLDGA-{Toyopearl AF‑Amino‑650 resin}
# B7: HVWQLK (peptide)
# peptide: HVWQLKA-{Toyopearl AF‑Amino‑650 resin}
# B8: HFRRHL (peptide)
# peptide: HFRRHLA-{Toyopearl AF‑Amino‑650 resin}
# B9: KLQWVH (peptide)
# peptide: KLQWVHA-{Toyopearl AF‑Amino‑650 resin}
# B10: KRGFYY (peptide)
# peptide: KRGFYYA-{Toyopearl AF‑Amino‑650 resin}
# B11: HWRGWV (peptide)
# peptide: HWRGWVA-{Toyopearl AF‑Amino‑650 resin}
# B12: WHWRKR (peptide)
# peptide: WHWRKRA-{Toyopearl AF‑Amino‑650 resin}
# B13: YYWLHH (peptide)
# peptide: YYWLHHA-{Toyopearl AF‑Amino‑650 resin}
# B14: HYFKFD (peptide)
# peptide: HYFKFDA-{Toyopearl AF‑Amino‑650 resin}
# B15: HVHYYW (peptide)
# peptide: HVHYYWA-{Toyopearl AF‑Amino‑650 resin}
# B16: Ac-HWRGWV (peptide)
# peptide: Ac-HWRGWVA-{Toyopearl AF‑Amino‑650 resin}
# B17: HYGLGW (peptide)
# peptide: HYGLGWA-{Toyopearl AF‑Amino‑650 resin}
# B18: HEILYW (peptide)
# peptide: HEILYWA-{Toyopearl AF‑Amino‑650 resin}
# B19: HFDKGF (peptide)
# peptide: HFDKGFA-{Toyopearl AF‑Amino‑650 resin}
# B20: HANGFL (peptide)
# peptide: HANGFLA-{Toyopearl AF‑Amino‑650 resin}
# B21: HWGPTK (peptide)
# peptide: HWGPTKA-{Toyopearl AF‑Amino‑650 resin}
# B22: HWIDPL (peptide)
# peptide: HWIDPLA-{Toyopearl AF‑Amino‑650 resin}
# B23: HIWA (peptide)
# peptide: HIWA-{Toyopearl AF‑Amino‑650 resin}
# How the values were obtained:
# [1] = target: 14C-HIgG (human); assay: secondary screening, batch, HIgG competitive (spiked in MEM)
# [2] = target: 14C-Fc fragment of HIgG (human); assay: secondary screening, batch, Fc fragment non-competitive (PBS)
# [3] = target: 14C-HIgG (human); assay: secondary screening, batch, HIgG non-competitive (PBS), Micro-BCA
# [4] = target: 14C-Fc fragment of HIgG (human); assay: secondary screening, batch, Fc fragment competitive (spiked in MEM)
# [5] = target: 14C-HIgG (human); assay: second round of secondary screening, batch, non-competitive (PBS)
# [6] = target: 14C-HIgG (human); assay: second round of secondary screening, batch, competitive (MEM), 14C counting
# [7] = target: Human IgG (HIgG) (human); assay: batch adsorption isotherm, PBS pH 7.4, peptide resin 0.1 meq/g, direct Langmuir fit
# [8] = target: Human IgG (HIgG) (human); assay: ratio of ligand to protein at maximum capacity, HWRGWV resin at 0.10 mmol/g
# [9] = target: Human IgG (HIgG) (human); assay: ratio of ligand to protein at maximum capacity, HWRGWV resin at 0.22 mmol/g
# [10] = target: Human IgG (HIgG) (human); assay: ratio of ligand to protein at maximum capacity, HWRGWV resin at 0.55 mmol/g
# [11] = target: Human IgG (HIgG) (human); assay: ratio of ligand to protein at maximum capacity, HWRGWV resin at 0.022 mmol/g
# [12] = target: Human IgG (HIgG) (human); assay: ratio of ligand to protein at maximum capacity, HWRGWV resin at 0.040 mmol/g
# [13] = target: Human IgG (HIgG) (human); assay: ratio of ligand to protein at maximum capacity, HWRGWV resin at 0.080 mmol/g
# [14] = target: Human IgG (HIgG) (human); assay: batch adsorption isotherm, PBS pH 7.4, HWRGWV resin at 0.10 mmol/g, Langmuir fit
# [15] = target: Human IgG (HIgG) (human); assay: batch adsorption isotherm, PBS pH 7.4, HWRGWV resin at 0.22 mmol/g, Langmuir fit
# [16] = target: Human IgG (HIgG) (human); assay: batch adsorption isotherm, PBS pH 7.4, HWRGWV resin at 0.55 mmol/g, Langmuir fit
# [17] = target: Human IgG (HIgG) (human); assay: batch adsorption isotherm, PBS pH 7.4, HWRGWV resin at 0.022 mmol/g, Langmuir fit
# [18] = target: Human IgG (HIgG) (human); assay: batch adsorption isotherm, PBS pH 7.4, HWRGWV resin at 0.040 mmol/g, Langmuir fit
# [19] = target: Human IgG (HIgG) (human); assay: batch adsorption isotherm, PBS pH 7.4, HWRGWV resin at 0.080 mmol/g, Langmuir fit
# [20] = target: Human IgG (HIgG) (human); assay: batch adsorption isotherm, PBS pH 7.4, peptide resin 0.1 meq/g, double reciprocal curve
# [21] = target: Human IgG (HIgG) (human); assay: ratio of ligand to protein at maximum capacity, Ac-HWRGWV resin at 0.080 mmol/g
# [22] = target: Human IgG (HIgG) (human); assay: batch adsorption isotherm, PBS pH 7.4, Ac-HWRGWV resin at 0.080 mmol/g, Langmuir fit
molecule,measurement,setting,value
HRPKIF (peptide),Bound %,[1],4.51%
same,Bound %,[2],21.5%
same,Bound %,[3],11.2%
same,Bound %,[4],24.5%
B1,Bound,[5],6.08%
same,Unbound,[5],93.9%
same,Bound,[6],7.34%
same,Unbound,[6],92.7%
B2,Bound,[6],8.64%
same,Unbound,[6],91.4%
B3,Bound,[6],23.5%
same,Unbound,[6],76.5%
B4,Bound,[6],27%
same,Unbound,[6],73%
B5,Bound,[6],8.55%
same,Unbound,[6],91.5%
B6,Bound,[6],10%
same,Unbound,[6],90%
B7,Bound,[6],15.1%
same,Unbound,[6],85%
B8,Bound,[6],40.9%
same,Unbound,[6],59.1%
same,Kd,[7],26.4 µM
same,qm (maximum capacity),[7],158 mg/g
B9,Bound,[6],12.2%
same,Unbound,[6],87.8%
B10,Bound,[6],17.3%
same,Unbound,[6],82.7%
B11,Bound %,[1],24.4%
same,Bound %,[2],82.5%
same,Bound %,[3],62.2%
same,Bound %,[4],8.13%
same,"peptide/protein, mol/mol",[8],112 mol/mol
same,"peptide/protein, mol/mol",[9],241 mol/mol
same,"peptide/protein, mol/mol",[10],600 mol/mol
same,"peptide/protein, mol/mol",[11],21 mol/mol
same,"peptide/protein, mol/mol",[12],41 mol/mol
same,"peptide/protein, mol/mol",[13],91 mol/mol
same,Kd,[14],10.4 µM
same,qm (maximum capacity),[14],134 mg/g
same,Kd,[15],2.58 µM
same,qm (maximum capacity),[15],137 mg/g
same,Kd,[16],0.947 µM
same,qm (maximum capacity),[16],138 mg/g
same,Kd,[17],30 µM
same,qm (maximum capacity),[17],158 mg/g
same,Kd,[18],20.3 µM
same,qm (maximum capacity),[18],148 mg/g
same,Kd,[19],7.25 µM
same,qm (maximum capacity),[19],132 mg/g
same,Kd,[7],1.33 µM
same,qm (maximum capacity),[7],50 mg/g
same,Kd,[20],2.8 µM
same,qm (maximum capacity),[20],54.8 mg/g
B12,Bound %,[1],10.9%
same,Bound %,[2],88.2%
same,Bound %,[3],66.2%
same,Bound %,[4],16.5%
same,Kd,[7],1.39 µM
same,qm (maximum capacity),[7],62.4 mg/g
same,Kd,[20],2.47 µM
same,qm (maximum capacity),[20],81.9 mg/g
B13,Bound %,[1],41.9%
same,Bound %,[2],40.4%
same,Bound %,[3],91.3%
same,Bound %,[4],8.85%
same,Kd,[7],0.297 µM
same,qm (maximum capacity),[7],113 mg/g
same,Kd,[20],0.215 µM
same,qm (maximum capacity),[20],95.1 mg/g
B14,Bound,[5],69.3%
same,Unbound,[5],30.7%
same,Bound,[6],43.3%
same,Unbound,[6],56.7%
same,Kd,[7],11.4 µM
same,qm (maximum capacity),[7],127 mg/g
B15,Bound,[5],55.5%
same,Unbound,[5],44.5%
same,Bound,[6],43.3%
same,Unbound,[6],56.7%
same,Kd,[7],20.3 µM
same,qm (maximum capacity),[7],129 mg/g
B16,"peptide/protein, mol/mol",[21],92 mol/mol
same,Kd,[22],3.8 µM
same,qm (maximum capacity),[22],131 mg/g
B17,Bound %,[1],14.5%
same,Bound %,[2],19.8%
same,Bound %,[3],17.9%
same,Bound %,[4],4.91%
B18,Bound %,[1],5.5%
same,Bound %,[2],18%
same,Bound %,[3],9.16%
same,Bound %,[4],3.2%
B19,Bound %,[1],6.01%
same,Bound %,[2],12.9%
same,Bound %,[3],10.7%
same,Bound %,[4],4.28%
B20,Bound %,[1],5.58%
same,Bound %,[2],10.2%
same,Bound %,[3],10.5%
same,Bound %,[4],25.6%
B21,Bound,[5],14.4%
same,Unbound,[5],85.6%
same,Bound,[6],19.9%
same,Unbound,[6],80.1%
B22,Bound,[5],9.03%
same,Unbound,[5],91%
same,Bound,[6],19.9%
same,Unbound,[6],80.1%
B23,Bound,[5],7.9%
same,Unbound,[5],92.1%
same,Bound,[6],12.9%
same,Unbound,[6],87.1%
